Data from patent US6994959, “G-rich oligo aptamers and methods of modulating an immune response” (Valeant Research & Development).

B1: ICN 16476 (ssDNA)
DNA: TTCCAGCCCCTCCTCCCC
modifications: PS all linkages
B2: ICN 16481 (ssDNA)
DNA: GGGGAGGAGGGGCTGGAA
modifications: PS all linkages
B3: ICN 16064 (ssDNA)
DNA: TTGGAGGGGGTGGTGGGG
modifications: PS all linkages
B4: 28b oligo (-51 to -22) (dsDNA)
DNA 1: GGGTTCCTCGGGGAGGAGGGGCTGGAACCC
DNA 2: GGGTTCCAGCCCCTCCTCCCCGAGGAACCC

How the values were obtained:
Sp1 [1] = molecular target: T1, Sp1 (UniProt P08047 P08047:2-785); experiment: competition; control oligo did not compete; about 70-100 molar excess; conditions: tags: Promega purified Sp1
T1 sequence (P08047 2-785, one chain of several): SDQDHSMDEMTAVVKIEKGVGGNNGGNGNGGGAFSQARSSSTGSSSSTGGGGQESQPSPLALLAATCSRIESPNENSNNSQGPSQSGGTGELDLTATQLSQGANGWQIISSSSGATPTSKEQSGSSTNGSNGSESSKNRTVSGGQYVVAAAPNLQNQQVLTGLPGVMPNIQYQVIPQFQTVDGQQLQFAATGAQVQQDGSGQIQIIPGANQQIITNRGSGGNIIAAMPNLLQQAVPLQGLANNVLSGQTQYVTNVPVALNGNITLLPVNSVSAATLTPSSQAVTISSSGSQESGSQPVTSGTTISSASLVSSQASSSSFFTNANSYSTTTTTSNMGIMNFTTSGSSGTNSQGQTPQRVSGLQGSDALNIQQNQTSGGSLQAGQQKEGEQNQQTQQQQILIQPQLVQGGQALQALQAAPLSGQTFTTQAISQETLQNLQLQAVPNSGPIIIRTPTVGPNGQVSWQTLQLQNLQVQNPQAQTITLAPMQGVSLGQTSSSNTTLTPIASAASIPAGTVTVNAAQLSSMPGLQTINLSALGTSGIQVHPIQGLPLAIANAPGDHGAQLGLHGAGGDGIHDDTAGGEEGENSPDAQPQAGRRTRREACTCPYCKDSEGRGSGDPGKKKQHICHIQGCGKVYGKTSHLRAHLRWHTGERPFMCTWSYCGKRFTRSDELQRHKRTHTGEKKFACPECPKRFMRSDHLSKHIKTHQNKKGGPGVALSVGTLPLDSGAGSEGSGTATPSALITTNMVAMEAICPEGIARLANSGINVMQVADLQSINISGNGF
Protocol: (§1) In an effort to restrict the precise Sp1 binding region in 28b to the G-rich motif in the CD28 promoter region –197 to +28, we synthesized a double stranded (ds) 30mer oligo called 28b oligo (Seq #1 Table 1) which contains the 12mer GGGGAGGAGGGG within its sequence. We hypothesized that this was a Sp1 binding site in the CD28 promoter region. Following 32P-labeling, 28b oligo was incubated with Sp1 extract and indeed they bind to each other (FIG. 5, band A, lane 2 and 3). Competition with cold ds 28b oligo caused the band to disappear showing indeed that the binding was specific to Sp1 (lane 4). […] The consequence of this interaction is the prevention of Sp1 binding to the Sp1 site at –51 to –22 in the promoter region and which inhibits Sp1-mediated transcription of the CD28 gene and decreases expression of the mature CD28 protein.

Sp1 [2] = molecular target: T1, Sp1; experiment: competition; competes with 32P ds 28b oligo; about 70-100 molar excess; conditions: tags: Promega purified Sp1
Protocol: as §1

Sp1 [3] = molecular target: T1, Sp1; experiment: EMSA; band A; competed by cold ds 28b oligo; room temperature; conditions: tags: Promega purified Sp1; label: 32P
Protocol: as §1

Binder | binding result (Sp1 [2]) | also measured
B1 | – | binding result (Sp1 [1]): no binding
B2 | binds | –
B3 | binds | –
B4 | – | binding result (Sp1 [3]): binds
